Data set [1] has as its target T1, CYP75B4-HN (Oryza sativa, UniProt Q8LM92, H351Q).
T1 construct: full length, 535 residues, natural allele with Gln351, C-terminal V5 and 6xHis tags, yeast WAT11 cells with Arabidopsis reductase ATR1
T1 sequence (Q8LM92 1-535 H351Q): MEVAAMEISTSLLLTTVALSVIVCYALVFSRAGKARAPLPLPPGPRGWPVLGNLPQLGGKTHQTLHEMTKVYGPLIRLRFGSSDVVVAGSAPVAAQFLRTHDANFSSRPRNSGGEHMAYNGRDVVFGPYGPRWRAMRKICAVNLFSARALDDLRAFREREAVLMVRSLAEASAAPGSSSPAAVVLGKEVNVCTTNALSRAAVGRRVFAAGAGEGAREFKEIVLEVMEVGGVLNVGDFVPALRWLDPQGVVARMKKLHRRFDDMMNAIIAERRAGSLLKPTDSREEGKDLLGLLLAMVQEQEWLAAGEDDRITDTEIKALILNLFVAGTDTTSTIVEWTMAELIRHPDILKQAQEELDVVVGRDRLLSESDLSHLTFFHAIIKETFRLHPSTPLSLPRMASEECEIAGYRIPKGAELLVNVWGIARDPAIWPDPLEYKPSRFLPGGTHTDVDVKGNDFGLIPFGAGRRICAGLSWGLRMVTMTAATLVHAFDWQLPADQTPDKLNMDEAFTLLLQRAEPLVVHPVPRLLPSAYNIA
Description: substrate feeding of induced yeast, HPLC of […]'-hydroxylated product. The note with it: 50 μM substrate, whole yeast WAT11 culture, 28 °C, 7.5 h. The class given is cell-based.

The target in data set [2] is T2, CYP75B4-JJJ (Oryza sativa, UniProt Q8LM92, E7V).
T2 construct: full length, 535 residues, natural allele with Val7, C-terminal V5 and 6xHis tags, yeast WAT11 cells with Arabidopsis reductase ATR1
T2 sequence (Q8LM92 1-535 E7V): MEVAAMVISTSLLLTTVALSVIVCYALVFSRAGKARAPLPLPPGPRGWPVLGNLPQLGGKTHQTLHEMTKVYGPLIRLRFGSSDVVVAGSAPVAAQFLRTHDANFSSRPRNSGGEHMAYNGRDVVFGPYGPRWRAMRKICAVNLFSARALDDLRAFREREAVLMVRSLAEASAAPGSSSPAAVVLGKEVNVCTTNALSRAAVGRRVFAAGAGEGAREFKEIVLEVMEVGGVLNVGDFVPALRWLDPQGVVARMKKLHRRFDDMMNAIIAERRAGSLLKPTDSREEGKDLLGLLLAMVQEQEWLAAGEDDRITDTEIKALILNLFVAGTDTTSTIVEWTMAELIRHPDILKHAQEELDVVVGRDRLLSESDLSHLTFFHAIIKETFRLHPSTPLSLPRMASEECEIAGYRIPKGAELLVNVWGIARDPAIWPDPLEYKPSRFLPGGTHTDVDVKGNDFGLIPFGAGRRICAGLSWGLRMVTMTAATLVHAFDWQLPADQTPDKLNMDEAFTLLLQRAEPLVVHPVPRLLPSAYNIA
Described as above. It is filed as cell-based. As to conditions: 50 μM substrate, whole yeast WAT11 culture, 28 °C, 7.5 h.

Substrate in data set [3]: O=c1cc(-c2ccc(O)cc2)oc2cc(O)cc(O)c12
Description: cells, lysate or membranes. The note with it: 1 mM NADPH, 100 mM Tris pH 7.5, 30 °C.

Substrate in data set [4]: O=c1c(O)c(-c2ccc(O)cc2)oc2cc(O)cc(O)c12
Description: cells, lysate or membranes. The class given is biochemical, Oryza sativa. The note with it: 1 mM NADPH, 100 mM Tris pH 7.5, 30 °C.

Substrate in data set [5]: O=C1CC(c2ccc(O)cc2)Oc2cc(O)cc(O)c21
Description: cells, lysate or membranes. The note with it: 1 mM NADPH, 100 mM Tris pH 7.5, 30 °C, racemic substrate.

Substrate in data set [6]: O=C1c2c(O)cc(O)cc2OC(c2ccc(O)cc2)C1O
Description: cells, lysate or membranes. The class given is biochemical, Oryza sativa. The note with it: 1 mM NADPH, 100 mM Tris pH 7.5, 30 °C, racemic substrate.

Experimental findings from paper PMC5037822, “Molecular and Biochemical Analysis of Two Rice Flavonoid 3’-Hydroxylase to Evaluate Their Roles in Flavonoid Biosynthesis in Rice Grain” (International Journal of Molecular Sciences, 2016) are described below.

As for `O=c1cc(-c2ccc(O)cc2)oc2cc(O)cc(O)c12` [API, apigenin], the “substrate feeding of induced yeast, HPLC of 3'-hydroxylated product” value in data set [1] is “CYP75B4-IM, CYP75B4-HN, and CYP75B4-JJJ metabolized naringenin, apigenin, and kaempferol”; in data set [2], “CYP75B4-IM, CYP75B4-HN, and CYP75B4-JJJ metabolized naringenin, apigenin, and kaempferol”.
Consider `O=c1c(O)c(-c2ccc(O)cc2)oc2cc(O)cc(O)c12` [KAM, kaempferol], for which the “substrate feeding of induced yeast, HPLC of 3'-hydroxylated product” value was “CYP75B4-IM, CYP75B4-HN, and CYP75B4-JJJ metabolized naringenin, apigenin, and kaempferol” in data set [1]; “CYP75B4-IM, CYP75B4-HN, and CYP75B4-JJJ metabolized naringenin, apigenin, and kaempferol” in data set [2].

B1: CYP75B4-IM (Oryza sativa Japonica Group) (protein)
chain: MEVAAMEISTSLLLTTVALSVIVCYALVFSRAGKARAPLPLPPGPRGWPVLGNLPQLGGKTHQTLHEMTKVYGPLIRLRFGSSDVVVAGSAPVAAQFLRTHDANFSSRPRNSGGEHMAYNGRDVVFGPYGPRWRAMRKICAVNLFSARALDDLRAFREREAVLMVRSLAEASAAPGSSSPAAVVLGKEVNVCTTNALSRAAVGRRVFAAGAGEGAREFKEIVLEVMEVGGVLNVGDFVPALRWLDPQGVVARMKKLHRRFDDMMNAIIAERRAGSLLKPTDSREEGKDLLGLLLAMVQEQEWLAAGEDDRITDTEIKALILNLFVAGTDTTSTIVEWTMAELIRHPDILKHAQEELDVVVGRDRLLSESDLSHLTFFHAIIKETFRLHPSTPLSLPRMASEECEIAGYRIPKGAELLVNVWGIARDPAIWPDPLEYKPSRFLPGGTHTDVDVKGNDFGLIPFGAGRRICAGLSWGLRMVTMTAATLVHAFDWQLPADQTPDKLNMDEAFTLLLQRAEPLVVHPVPRLLPSAYNIA
notes: full length, 535 residues, C-terminal V5 and 6xHis tags (pYES-DEST52), yeast WAT11 microsomes with Arabidopsis reductase ATR1
For B1, in data set [3], the Km was found to be 0.240 ± 0.042 µM and the Vmax was 0.008 µM/min/mg. Further, in data set [4], the Km stood at 2.948 ± 0.330 µM and the maximal velocity (Vmax) was determined as 0.007 µM/min/mg.

B2: CYP75B3-IM (CYP75B3-JJJ) (Oryza sativa Japonica Group) (protein)
chain: MDVVPLPLLLGSLAVSAAVWYLVYFLRGGSGGDAARKRRPLPPGPRGWPVLGNLPQLGDKPHHTMCALARQYGPLFRLRFGCAEVVVAASAPVAAQFLRGHDANFSNRPPNSGAEHVAYNYQDLVFAPYGARWRALRKLCALHLFSAKALDDLRAVREGEVALMVRNLARQQAASVALGQEANVCATNTLARATIGHRVFAVDGGEGAREFKEMVVELMQLAGVFNVGDFVPALRWLDPQGVVAKMKRLHRRYDNMMNGFINERKAGAQPDGVAAGEHGNDLLSVLLARMQEEQKLDGDGEKITETDIKALLLNLFTAGTDTTSSTVEWALAELIRHPDVLKEAQHELDTVVGRGRLVSESDLPRLPYLTAVIKETFRLHPSTPLSLPREAAEECEVDGYRIPKGATLLVNVWAIARDPTQWPDPLQYQPSRFLPGRMHADVDVKGADFGLIPFGAGRRICAGLSWGLRMVTLMTATLVHGFDWTLANGATPDKLNMEEAYGLTLQRAVPLMVQPVPRLLPSAYGV
notes: full length, 526 residues, C-terminal V5 and 6xHis tags (pYES-DEST52), yeast WAT11 microsomes with Arabidopsis reductase ATR1
Take B2: the Km in data set [5] was 0.286 ± 0.015 µM; in data set [6], 2.494 ± 0.350 µM; in data set [4] it was 0.110 ± 0.008 µM. The figures for the Vmax in data set [5], in data set [6] and in data set [4] were 0.214 µM/min/mg, 0.43 µM/min/mg and 0.24 µM/min/mg, respectively.

B3: CYP75B3-HN (Oryza sativa Japonica Group; R27H) (protein)
chain: MDVVPLPLLLGSLAVSAAVWYLVYFLHGGSGGDAARKRRPLPPGPRGWPVLGNLPQLGDKPHHTMCALARQYGPLFRLRFGCAEVVVAASAPVAAQFLRGHDANFSNRPPNSGAEHVAYNYQDLVFAPYGARWRALRKLCALHLFSAKALDDLRAVREGEVALMVRNLARQQAASVALGQEANVCATNTLARATIGHRVFAVDGGEGAREFKEMVVELMQLAGVFNVGDFVPALRWLDPQGVVAKMKRLHRRYDNMMNGFINERKAGAQPDGVAAGEHGNDLLSVLLARMQEEQKLDGDGEKITETDIKALLLNLFTAGTDTTSSTVEWALAELIRHPDVLKEAQHELDTVVGRGRLVSESDLPRLPYLTAVIKETFRLHPSTPLSLPREAAEECEVDGYRIPKGATLLVNVWAIARDPTQWPDPLQYQPSRFLPGRMHADVDVKGADFGLIPFGAGRRICAGLSWGLRMVTLMTATLVHGFDWTLANGATPDKLNMEEAYGLTLQRAVPLMVQPVPRLLPSAYGV
notes: full length, 526 residues, natural allele with His27, C-terminal V5 and 6xHis tags, yeast WAT11 microsomes with Arabidopsis reductase ATR1
For the molecule B3, the values for the Km in data set [5] and in data set [6] were 0.108 ± 0.009 µM and 1.034 ± 0.107 µM, respectively. Also, the Vmax turned out to be 0.193 µM/min/mg in data set [5] and 0.281 µM/min/mg in data set [6].
